Publication PMC8564633, “SMAC/Diablo controls proliferation of cancer cells by regulating phosphatidylethanolamine synthesis” (Molecular Oncology, 2021)

Target: T1, purified PSD (Homo sapiens, UniProt Q9UG56)
T1 construct: Purified recombinant protein (full length) of human phosphatidylserine decarboxylase (PSD); His tag (N); purchased Acris-OriGene; host or cells: E. coli
T1 sequence (Q9UG56 53-409): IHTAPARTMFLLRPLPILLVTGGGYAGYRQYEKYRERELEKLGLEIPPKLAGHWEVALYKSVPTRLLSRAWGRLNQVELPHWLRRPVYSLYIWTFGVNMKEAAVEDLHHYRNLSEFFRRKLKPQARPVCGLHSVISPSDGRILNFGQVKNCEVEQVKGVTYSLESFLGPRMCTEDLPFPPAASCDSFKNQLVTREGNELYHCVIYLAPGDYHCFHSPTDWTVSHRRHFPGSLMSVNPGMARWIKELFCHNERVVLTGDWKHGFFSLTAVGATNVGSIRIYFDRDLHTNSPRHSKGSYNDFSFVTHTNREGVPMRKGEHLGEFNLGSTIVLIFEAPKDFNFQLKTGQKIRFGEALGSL
Experiment: PSD activity, DSB‐3 method
Assay type: biochemical
Conditions: PS 50 μM, 45 min, 30 °C, n = 4, read-out: IC50, SMAC‐inhibiting PSD activity
Experimental: PE content in the lipid samples was measured as described previously. Briefly, solvent was evaporated from the lipid samples under nitrogen gas, and samples were resuspended in 0.8 mM Triton X‐100. Sample aliquots were added to 96‐well plates containing (50 µL) reaction mixture (80 mM NaCl, 2 mM K2HPO4, pH 7.4) and of borate buffer (12.5 µL) (100 mM boric acid, 75 mM NaCl, 25 mM sodium tetraborate, pH 9). After mixing, 12.5 µL of 100 µM DSB‐3, in 10 mM K2HPO4 (pH 7.4), was then added and incubated for 2 h in the dark with shaking (100 r.p.m.). Fluorescence was measured using excitation λex = 403 nm and emission λem = 508 nm. A calibration curve was obtained using PE (Biovision) as a standard.
To determine PSD activity, purified enzyme (0.2–0.4 μM) or crude cell lysate (0.25–0.5 μg of protein) was incubated with PS (50 μM) for 45 min at 30 °C in the dark with shaking under the conditions described above for PE determination. PSD activity was measured by determining the PE produced as described above, except that the signal obtained in the absence of substrate PS (representing endogenous PE) was subtracted from the signal obtained in the presence of PS.
Human recombinant SMAC (10339‐H08E) was produced by Sino Biologicals (Wayne, PA, USA). […]

IC50: 0.4 µM
B1: SMAC: Human recombinant SMAC (10339‐H08E) produced by Sino Biologicals (protein)
chain: LCVPVVANFKKRCFSELIRPWHKTVTIGFGVTLCAVPIAQKSEPHSLSSEALMRRAVSLVTDSTSTFLSQTTYALIEAITEYTKAVYTLTSLYRQYTSLLGKMNSEEEDEVWQVIIGARAEMTSKHQEYLKLETTWMTAVGLSEMAAEAAYQTGADQASITARNHIQLVKLQVEEVHQLSRKAETKLAEAQIEELRQKTQEEGEERAESEQEAYLRED
modifications: fluorescently labelled with the NanoTemper Protein labelling kit BLUE (in the MST with PSD only)
notes: Human recombinant SMAC (10339‐H08E) produced by Sino Biologicals
